In PMC6773726, “The ubiquitin-like modifier FAT10 interferes with SUMO activation” (Nature Communications, 2019):

T1: AOS1/UBA2, heterodimeric SUMO E1 activating enzyme, recombinant (human, UniProt Q9UBE0 1-346; Q9UBT2 1-640)
T1 construct: expressed from pET11d-UBA2; The N-terminal end of the His tag follows from the printed offset of +23 aa; also called SAE1/SAE2; not shown: 6His, N-terminal, kept
T1 sequence (looked up) 1: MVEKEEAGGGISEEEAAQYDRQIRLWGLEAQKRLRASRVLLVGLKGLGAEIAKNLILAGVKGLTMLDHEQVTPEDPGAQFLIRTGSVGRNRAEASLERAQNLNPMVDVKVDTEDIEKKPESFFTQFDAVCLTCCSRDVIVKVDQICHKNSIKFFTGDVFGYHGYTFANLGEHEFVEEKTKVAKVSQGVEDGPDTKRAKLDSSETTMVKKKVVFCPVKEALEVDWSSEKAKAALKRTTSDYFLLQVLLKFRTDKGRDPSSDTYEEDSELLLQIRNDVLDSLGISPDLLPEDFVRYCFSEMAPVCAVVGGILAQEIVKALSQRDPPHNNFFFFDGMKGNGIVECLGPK
T1 sequence (looked up) 2: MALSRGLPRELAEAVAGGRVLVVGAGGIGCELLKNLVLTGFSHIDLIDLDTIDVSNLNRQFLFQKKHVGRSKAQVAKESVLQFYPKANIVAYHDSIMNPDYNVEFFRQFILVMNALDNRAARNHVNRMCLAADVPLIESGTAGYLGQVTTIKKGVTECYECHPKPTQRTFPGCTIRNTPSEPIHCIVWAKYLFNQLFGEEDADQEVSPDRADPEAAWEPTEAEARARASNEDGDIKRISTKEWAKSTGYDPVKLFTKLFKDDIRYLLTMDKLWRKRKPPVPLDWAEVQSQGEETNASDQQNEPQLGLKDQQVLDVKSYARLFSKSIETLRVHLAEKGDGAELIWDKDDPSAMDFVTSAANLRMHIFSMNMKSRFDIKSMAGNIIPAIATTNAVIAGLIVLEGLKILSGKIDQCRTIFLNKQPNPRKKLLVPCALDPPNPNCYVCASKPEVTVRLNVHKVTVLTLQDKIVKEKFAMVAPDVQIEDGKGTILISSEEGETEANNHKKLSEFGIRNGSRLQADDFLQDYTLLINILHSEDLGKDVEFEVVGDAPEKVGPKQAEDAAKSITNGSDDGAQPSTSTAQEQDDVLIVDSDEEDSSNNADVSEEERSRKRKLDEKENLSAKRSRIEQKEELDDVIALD


What was measured:
[1] = biological target: T1, AOS1/UBA2, heterodimeric SUMO E1 …; assay: BLI; Octet (Forte Bio); sensors loaded with 0.1 mg/ml AOS1/UBA2; GST-FAT10 at 0.5, 0.25, 0.1 and 0.05 mg/ml measured versus GST; buffer TNT (50 mM Tris HCl pH 7.6, 100 mM NaCl, 0.1% Triton X-100); association 600 s, dissociation 600 s; conditions: both partners purified
[2] = biological target: T1, AOS1/UBA2, heterodimeric SUMO E1 …; assay: co-IP; recombinant proteins: 25 nM AOS1/UBA2 with 0.7 uM of each FAT10 variant in in vitro buffer without ATP; FAT10 precipitated with the antibody 4F1 on protein A sepharose, 3 h at 8 °C; blots for the E1 subunits; conditions: both partners purified

Row | Binder | Kd [1] | binding result [2]
1 | GST-FAT10 (natural protein, human, UniProt O15205 1-165, looked up, FAT10 (ubiquitin D, UBD), human; also called FAT10 (in the sentence that gives the Kd); source: E. coli BL21(DE3) (pGEX4T-3-FAT10), purified (glutathione agarose, PD-10 desalting)) MAPNASCLCVHVRSEEWDLMTFDANPYDSVKKIKEHVRSKTKVPVQDQVLLLGSKILKPRRSLSSYGIDKEKTIHLTLKVVKPSDEELPLFLVESGDEAKRHLLQVRRSSSVAQVKAMIETKTGIIPETQIVTCNGKRLEDGKMMADYGIRKGNLLFLACYCIGG | 1800 nM | 
2 | FAT10, recombinant, untagged (natural protein, human, UniProt O15205 2-165, looked up, FAT10 (ubiquitin D, UBD), human; also called wild-type FAT10; source: E. coli BL21(DE3) (pSUMO-FAT10), purified (HisTrap, tag removal with ULP-1, cation exchange)) APNASCLCVHVRSEEWDLMTFDANPYDSVKKIKEHVRSKTKVPVQDQVLLLGSKILKPRRSLSSYGIDKEKTIHLTLKVVKPSDEELPLFLVESGDEAKRHLLQVRRSSSVAQVKAMIETKTGIIPETQIVTCNGKRLEDGKMMADYGIRKGNLLFLACYCIGG |  | binds
3 | FAT10-AV, recombinant, untagged (natural protein, human, UniProt O15205 2-165, looked up, FAT10 (ubiquitin D, UBD), human, C-terminal diglycine motif changed from GG to AV; also called FAT10 diglycine mutant FAT10-AV; source: E. coli BL21(DE3) (pSUMO-FAT10-AV), purified (HisTrap, tag removal with ULP-1, cation exchange)) APNASCLCVHVRSEEWDLMTFDANPYDSVKKIKEHVRSKTKVPVQDQVLLLGSKILKPRRSLSSYGIDKEKTIHLTLKVVKPSDEELPLFLVESGDEAKRHLLQVRRSSSVAQVKAMIETKTGIIPETQIVTCNGKRLEDGKMMADYGIRKGNLLFLACYCIAV |  | binds
